Test results from paper PMC7597377 (Science signaling, 2020).
Read-outs that look alike come from different tables or passages of the source.

Legend:
Assay in all cases: FRET or BRET
[1] = target: T1, ERα ligand-binding domain Q375E (ERα-LBD-biotin) (human, biotin)
[2] = target: T2, ERα ligand-binding domain, wild type (ERα-LBD-biotin) (human, biotin)
[3] = target: T3, ERα ligand-binding domain Q375A (ERα-LBD-biotin) (human, biotin)
[4] = target: T4, ERα ligand-binding domain Q375K (ERα-LBD-biotin) (human, biotin)
[5] = target: T1, ERα ligand-binding domain Q375E …; remark: listed apart in the source
[6] = target: T2, ERα ligand-binding domain, wild type …; remark: listed apart in the source
[7] = target: T3, ERα ligand-binding domain Q375A …; remark: listed apart in the source
[8] = target: T4, ERα ligand-binding domain Q375K …; remark: listed apart in the source
[9] = target: T1, ERα ligand-binding domain Q375E …; remark: listed apart in the source
[10] = target: T2, ERα ligand-binding domain, wild type …; remark: listed apart in the source
[11] = target: T3, ERα ligand-binding domain Q375A …; remark: listed apart in the source
[12] = target: T4, ERα ligand-binding domain Q375K …; remark: listed apart in the source
[13] = target: T1, ERα ligand-binding domain Q375E …; remark: listed apart in the source
[14] = target: T2, ERα ligand-binding domain, wild type …; remark: listed apart in the source
[15] = target: T3, ERα ligand-binding domain Q375A …; remark: listed apart in the source
[16] = target: T4, ERα ligand-binding domain Q375K …; remark: listed apart in the source
[17] = target: T1, ERα ligand-binding domain Q375E …; remark: listed apart in the source
[18] = target: T2, ERα ligand-binding domain, wild type …; remark: listed apart in the source
[19] = target: T3, ERα ligand-binding domain Q375A …; remark: listed apart in the source
[20] = target: T4, ERα ligand-binding domain Q375K …; remark: listed apart in the source
[21] = target: T1, ERα ligand-binding domain Q375E …; remark: listed apart in the source
[22] = target: T2, ERα ligand-binding domain, wild type …; remark: listed apart in the source
[23] = target: T3, ERα ligand-binding domain Q375A …; remark: listed apart in the source
[24] = target: T4, ERα ligand-binding domain Q375K …; remark: listed apart in the source

- fold reduction in SRC1 binding vs WT ER (Kd mutant/Kd WT) [1]: 8.7 fold
- Kd [2]: 3 nM
- fold reduction in SRC1 binding vs WT ER (Kd mutant/Kd WT) [3]: 16 fold
- Kd [4]: 1.6 nM
- fold reduction in SRC1 binding vs WT ER (Kd mutant/Kd WT) [5]: 3.4 fold
- Kd [6]: 6.4 nM
- fold reduction in SRC1 binding vs WT ER (Kd mutant/Kd WT) [7]: 8 fold
- Kd [8]: 2.1 nM
- fold reduction in SRC1 binding vs WT ER (Kd mutant/Kd WT) [9]: 7.4 fold
- Kd [10]: 3.5 nM
- fold reduction in SRC1 binding vs WT ER (Kd mutant/Kd WT) [11]: 21 fold
- Kd [12]: 1.5 nM
- fold reduction in SRC1 binding vs WT ER (Kd mutant/Kd WT) [13]: 2.8 fold
- Kd [14]: 6.8 nM
- fold reduction in SRC1 binding vs WT ER (Kd mutant/Kd WT) [15]: 8.8 fold
- Kd [16]: 2.2 nM
- fold reduction in SRC1 binding vs WT ER (Kd mutant/Kd WT) [17]: 11 fold
- Kd [18]: 3.4 nM
- fold reduction in SRC1 binding vs WT ER (Kd mutant/Kd WT) [19]: 17 fold
- Kd [20]: 1.7 nM
- fold reduction in SRC1 binding vs WT ER (Kd mutant/Kd WT) [21]: 4.2 fold
- fold increase in SRC1 binding with ligand vs E2 (Kd E2/Kd compound) [22]: 0.3 fold
- fold reduction in SRC1 binding vs WT ER (Kd mutant/Kd WT) [23]: 5.5 fold
- fold increase in SRC1 binding with ligand vs E2 (Kd E2/Kd compound) [24]: 0.16 fold
- fold reduction in SRC1 binding vs WT ER (Kd mutant/Kd WT) [24]: 0.62 fold
B1: SRC1 NR interaction domain (ca. 200 amino acids), FRET acceptor-labeled (domain or fragment)
chain: PSRLNIQPAKAESKDNKEIASILNEMIQSDNSSSDGKPLDSGLLHNNDRLSDGDSKYSQTSHKLVQLLTTTAEQQLRHADIDTSCKDVLSCTGTSNSASANSSGGSCPSSHSSLTERHKILHRLLQEGSPSDITTLSVEPDKKDSASTSVSVTGQVQGNSSIKLELDASKKKESKDHQLLRYLLDKDEKDLRSTPNLSLDDVKVKVEKKEQ
modifications: FRET acceptor label (not named)
